# Measured values from US20090175881A1 (SCHERING, published 2009).
# Positions count from the first letter of the chain named. Names and notes keep the numbering of the source. Values joined by “and” are separate entries in the source; they are usually repeats but may differ in a detail not shown here. Equal entries are not always repeated.
# B1: humanized 16C10 wt (antibody, human IgG1, kappa, V domains shown)
# VH: QVQLQESGPGLVKPSETLSLTCTVSGFSLPSHSVSWIRQPPGKGLEWIGIIWNNGGTDYNSAFKSRVTISVDTSKNQFSLKLSSVTAADTAVYYCARNMYITDYYYENYFMDAWGQGTLVTVSS
# VL: DIVMTQSPLSLPVTPGEPASISCKSSQSLLFSENQKNYLAWYLQKPGQSPQLLIYWTSTRQSGVPDRFSGSGSGTDFTLKISRVEAEDVGVYYCQQSYYTPYTFGQGTKVEIKR
# notes: Humanized antibody with the parental rat CDRs; Human IgG1/kappa; also called hu 16C10 wt; hu16C10 (wt)
# B2: hu 16C10 Fab (Fab, V domains shown)
# VH: B1 VH with N54Q, M99A
# VL: B1 VL
# notes: also called Fab fragment of hu 16C10
# B3: humanized 16C10 (VH N54Q/M96A) (antibody, human IgG1, kappa, V domains shown)
# VH: B1 VH with N54Q, M99A
# VL: B1 VL
# notes: Human IgG1/kappa; also called hu 16C10; hu16C10
# B4: hu 16C10 VH M96F (antibody, human IgG1, V domains shown)
# VH: B1 VH with M99F
# VL: B1 VL
# notes: Variant of hu 16C10 wt; Human IgG1/kappa
# B5: hu 16C10 VH M100hF (antibody, human IgG1, V domains shown)
# VH: B1 VH with M111F
# VL: B1 VL
# notes: Variant of hu 16C10 wt; Human IgG1/kappa; also called hu16C10 (M100hF)
# B6: hu 16C10 VH N54Q (antibody, human IgG1, V domains shown)
# VH: B1 VH with N54Q
# VL: B1 VL
# notes: Variant of hu 16C10 wt; Human IgG1/kappa; also called hu16C10 (N54Q)
# B7: hu 16C10 VH N54A (antibody, human IgG1, V domains shown)
# VH: B1 VH with N54A
# VL: B1 VL
# notes: Variant of hu 16C10 wt; Human IgG1/kappa; also called hu16C10 (N54A)
# B8: hu 16C10 VH N60A (antibody, human IgG1, V domains shown)
# VH: B1 VH with N60A
# VL: B1 VL
# notes: as for B4
# B9: hu 16C10 VH N54Q/M96A/M100hF (antibody, human IgG1, kappa, V domains shown)
# VH: B1 VH with N54Q, M99A, M111F
# VL: B1 VL
# notes: Human IgG1/kappa; also called hu 16C10 VH 54Q/M96A/M100hF; hu16C10 (N54Q/M96A/M100hF)
# B10: hu 16C10 VH M100hL (antibody, human IgG1, V domains shown)
# VH: B1 VH with M111L
# VL: B1 VL
# notes: as for B4
# B11: hu 16C10 VH N60Q (antibody, human IgG1, V domains shown)
# VH: B1 VH with N60Q
# VL: B1 VL
# notes: as for B4
# B12: hu 16C10 VH M96K (antibody, human IgG1, V domains shown)
# VH: B1 VH with M99K
# VL: B1 VL
# notes: Variant of hu 16C10 wt; Human IgG1/kappa; also called hu16C10 (M96K)
# B13: hu 16C10 VH M96L (antibody, human IgG1, V domains shown)
# VH: B1 VH with M99L
# VL: B1 VL
# notes: as for B4
# B14: hu 16C10 VH M96A (antibody, human IgG1, V domains shown)
# VH: B1 VH with M99A
# VL: B1 VL
# notes: Variant of hu 16C10 wt; Human IgG1/kappa; also called hu16C10 (M96A)
# B15: rat 12E6 (antibody, V domains shown)
# VH: EVQLEESGGGLVQPGRSLKLSCAASGFTFRDYYMVWVRQAPKKGLEWVASISYEGSSIYYGESVKGRFTISRDNAKSTLYLQMNSLRSEDTATYYCARHGFNPFDYWGRGVMVTVSS
# VL: DIQMTQSPSSLSASLGDRVTITCRTSQDIGNYLSWFQQKPGKSPRLMIYGASNLEDGVPSRFSGSRSGSDYSLTISSLESEDTAIYYCLQYDKYPNTFGAGTKLELKR
# B16: rat 30C10 (antibody, V domains shown)
# VH: EVQLVESGGGLVQPGRSQKLSCVVSGFTFNNYWMTWIRQAPGKGLEWVASVSNTGSSTYYPASVKGRFTISRDNAKSTLYLQMNSLRSEDTATYYCTREGAYYLDYWGQGVMVTVSS
# VL: DIVMTQSPSSLAVSPGETVTINCKSSQSLFWSESHMNYLAWYQQKPGQSPKLLIYYASTRQSGVPDRFIGSGSGTDFTLTISGVQAEDLAVYYCHHHYDSHTFGAGTKLELKR
# notes: Parental rat monoclonal antibody (hybridoma PTA-7739); also called 30C10C
# B17: rat 4C3 (antibody, V domains shown)
# VH: QVELRESGPGLVQPSQTLSLTCTVSGFSLPSHSVSWIRQPPGKGLEWMGIIWNNGGTDYNSAFKSRLTISRDTSKSQVFLKMNSLQTEDTAMYFCARNMYITDYYYENYFMDAWGQGASVTVSS
# VL: DIVMTQSPSSLAVSVGETVTLNCKSSQSLLFSENQKNYLAWYQHKSGQSPKLLVYWTSTRQSGVPDRFMGSGSGTDFTLTISSVQAEDLAIYYCQQSYYTPYTFGAGTKLELKR
# B18: chimeric 16C10 (antibody, human IgG1, kappa, V domains shown)
# VH: B17 VH
# VL: B17 VL with V15I
# notes: also called chimeric 16C10C
# What was measured:
# rhIL-17A [1] = molecular target: T1, rhIL-17A (human, UniProt Q16552 24-155); test: cell-based or functional assay
# T1 sequence: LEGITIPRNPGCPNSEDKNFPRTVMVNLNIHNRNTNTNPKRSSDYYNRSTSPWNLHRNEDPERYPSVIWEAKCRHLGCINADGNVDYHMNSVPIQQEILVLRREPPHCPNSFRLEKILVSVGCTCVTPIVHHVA
# rhIL-17A [2] = molecular target: T1, rhIL-17A; test: cell-based or functional assay; remark: listed apart in the source
# rhIL-17A [3] = molecular target: T1, rhIL-17A; test: KinExA, solution equilibrium
# Method: (§1) The equilibrium dissociation constants (Kd) for anti human IL-17A antibodies were determined using the KinExA 3000 instrument (Sapidyne Instruments Inc., Boise, Id., USA). KinExA uses the principle of the Kinetic Exclusion Assay method based on measuring the concentration of uncomplexed antibody in a mixture of antibody, antigen and antibody-antigen complex. […] The concentration of free antibody is measured by exposing the mixture to a solid-phase immobilized antigen for a very brief period of time. l practice, this is accomplished by flowing the solution phase antigen-antibody mixture past antigen-coated particles trapped in a flow cell. Data generated by the instrument are analyzed using custom software.
# (§2) IL-17A was derived from either human (“hu”), cynomolgus monkey (“cyno”), or mouse (“mu”). IL-17A from the same species was used in both the immobilized and solution phases for each KinExA determination. Poly(methyl-methacrylate) (PMMA) particles (98 micron) were coated with human, cyno or mouse IL-17A according to Sapidyne “Protocol for coating PMMA particles with biotinylated ligands having short or nonexistent linker arms.” All experimental procedures were done according to the KinExA 3000 manual. All runs were done in duplicate.
# (§3) Two-fold serial dilutions of the antigen were prepared and mixed with the antibody at constant concentration. The mixture was incubated for 2 hours at 25° C. to equilibrate.
# rhIL-17A [4] = molecular target: T1, rhIL-17A; test: indirect ELISA, rhIL-17A coated on plate
# Method: Binding of anti-human-IL-17A monoclonal antibodies to rhIL-17A is assessed using an indirect enzyme-linked immunosorbent assay (ELISA). Briefly, a fixed concentration of rhIL-17A is bound directly to the wells of a microtiter plate. The monoclonal anti-IL-17A to be assayed is then is added to the rhIL-17A coated plate, where the antibody is captured and quantitated.
# A 96-well U-bottom MaxiSorp plate is coated with 50 μl/well of rhIL-17A (0.5 μg/ml) in carbonate coating buffer (the “assay plate”). Carbonate coating buffer is 2.9 g/L NaHFCO₃, 1.6 g/L Na₂CO₃, pH 9.4. Plates are incubated covered at 4° C. overnight. Monoclonal antibodies to be screened are serially diluted in duplicate across the rows of a V-bottom plate such that the final volume is 60 μl/well (the “serial dilution plate”). The assay plate is washed three times with PBS-Tween in a plate washer (SkanWasher, Molecular Devices, Sunnyvale, Calif., USA) and blotted dry. PBS-Tween is obtained by adding 0.5 ml/L Tween 20 to 1×PBS. Fifty μl from each well of the serial dilution plate is transferred to the assay plate and incubated at 25° C. for one hour. Secondary antibodies are diluted 1/2000 in diluent (PBS-BSA-Tween, which is PBS-Tween with 1 g/L BSA). The secondary antibody for rat monoclonal antibodies is goat anti-rat IgG (H+L)—HRP (Jackson ImmunoResearch Laboratories, Inc., West Grove, Pa., USA). The secondary antibody for chimeric and humanized monoclonal antibodies is F(ab′)₂ goat anti-human IgG Fcγ—HRP (Jackson ImmunoResearch Laboratories, Inc.). The assay plate is washed as before. Diluted secondary antibodies (100 μl/well) are added to the appropriate wells in the assay plate, and the plate is incubated at 25° C. for 45 minutes. The assay plate is washed as before.
# rhIL-17A [5] = molecular target: T1, rhIL-17A; test: sandwich ELISA, IL-17A captured on rat 12E6, antibody titrated
# Method: (§4) Binding of anti-human-IL-17A monoclonal antibodies to rhIL-17A is assessed using an ELISA as follows. Briefly, a capture antibody is bound to the wells of a microtiter plate, after which a fixed concentration of rhIL-17A is added. The monoclonal anti-IL-17A to be assayed is then titrated versus the bound rhIL-17A on the plate to determine the concentration of antibody needed to achieve half-maximal binding. A more detailed protocol follows.
# (§5) A 96-well microtiter plate is coated with 100 μl/well of capture antibody (rat anti-hIL-17A 12E6, 0.5 μg/ml) in carbonate coating buffer pH 9.5 (the “assay plate”). Plates are incubated covered at 4° C. for 24 to 48 hours. The assay plate is washed three times in a plate washer (SkanWasher, Molecular Devices, Sunnyvale, Calif., USA) and blotted dry. The plate is then blocked with 200 μl/well of ELISA assay buffer (20 mM Tris-HCl, 0.15 M NaCl, pH7.4, 0.5% BSA, 0.05% Tween-20, SM EDTA) for one hour at 25° C. on an orbital shaker. The plate is washed, and 100 μl/well of either adenovirus-derived rhIL-17A or E. coli-derived human IL-17 (IL-17A) (R&D Systems, Minneapolis, Minn., USA) (0.1 g/ml) is added in ELISA assay buffer and incubated for 2 hours at 25° C. on an orbital shaker. […] Plates are incubated for 1.5 hours at 25° C. on an orbital shaker. Plates are washed and 100 μl/well secondary antibody (F(ab′)₂ goat anti-human kappa light chain—HRP, 1:20,000 dilution, BioSource, Carlsbad, Calif., USA) is added, except for assay blank wells. Plates are washed twice (i.e. two cycles of 3 washes per cycle) with plate rotation between cycles. TMB substrate (Kirkegaard & Perry Laboratories, Gaithersburg, Md., USA) is added at 100 μl/well and incubated 3-5 minutes on an orbital shaker. Stop solution is added (100 μl/well) and the plate is read for absorbance at 450-570 um on a plate reader (Versamax, Molecular Devices, Sunnyvale, Calif., USA).
# R&D Systems human IL-17A = molecular target: T2, R&D Systems human IL-17A (human, UniProt Q16552 20-155); test: as above
# T2 construct: Bought from R&D Systems, made in E. coli; also called R&D IL-17A; E. coli-derived human IL-17 (IL-17A)
# T2 sequence: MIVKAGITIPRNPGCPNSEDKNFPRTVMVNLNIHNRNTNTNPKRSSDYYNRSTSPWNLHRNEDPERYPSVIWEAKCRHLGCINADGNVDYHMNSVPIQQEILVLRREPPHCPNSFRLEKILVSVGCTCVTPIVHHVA
# Method: as §4, §5
# native human IL-17A [6] = molecular target: T3, native human IL-17A (human, UniProt Q16552 24-155); test: cell-based or functional assay
# T3 sequence: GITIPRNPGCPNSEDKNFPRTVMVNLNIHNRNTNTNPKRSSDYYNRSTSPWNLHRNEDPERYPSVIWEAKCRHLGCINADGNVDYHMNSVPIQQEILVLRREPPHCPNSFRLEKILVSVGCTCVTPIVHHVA
# cynomolgus monkey IL-17A [7] = molecular target: T4, cynomolgus monkey IL-17A (cynomolgus monkey, UniProt A0A2K5TTB0 24-155); test: cell-based or functional assay
# T4 sequence: T3 sequence with T3A, P8S, N34S, I77V, N78K, P104R
# native human IL-17A [8] = molecular target: T3, native human IL-17A; test: cell-based or functional assay; remark: listed apart in the source
# cynomolgus monkey IL-17A [9] = molecular target: T4, cynomolgus monkey IL-17A; test: cell-based or functional assay; remark: listed apart in the source
# rhIL-17A [10] = molecular target: T1, rhIL-17A; test: cell-based or functional assay; remark: listed apart in the source
# cynomolgus monkey IL-17A [11] = molecular target: T4, cynomolgus monkey IL-17A; test: cell-based or functional assay; remark: listed apart in the source
# cynomolgus monkey IL-17A [12] = molecular target: T4, cynomolgus monkey IL-17A; test: KinExA, solution equilibrium
# Method: as §1, §2, §3
# rhIL-17A [13] = molecular target: T1, rhIL-17A; test: cell-based or functional assay; remark: listed apart in the source
# cynomolgus monkey IL-17A [14] = molecular target: T4, cynomolgus monkey IL-17A; test: cell-based or functional assay; remark: listed apart in the source
# FLAG-huIL-17A [15] = molecular target: T5, FLAG-huIL-17A (human, UniProt Q16552 24-155); test: KinExA, solution equilibrium
# T5 construct: also called FLAG-huL-17A; FLAG-IL-17A
# T5 sequence: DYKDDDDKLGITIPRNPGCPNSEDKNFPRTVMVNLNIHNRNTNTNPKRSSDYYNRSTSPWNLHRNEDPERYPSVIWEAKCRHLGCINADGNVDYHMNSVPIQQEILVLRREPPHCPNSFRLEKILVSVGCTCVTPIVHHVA
# Method: as §1, §2, §3
# cynomolgus monkey IL-17A [16] = molecular target: T4, cynomolgus monkey IL-17A; test: ECL (Origen); area under the curve
# From the text: (§6) Origen electrochemiluminescence technology, developed by IGEN, Inc. (Gaithersburg, Md., USA), and was employed to measure the binding of rat anti-human IL-17A antibodies (and one chimeric antibody) to FLAG-huL-17A. […] Electrochemiluminescence technology uses a stable ruthenium metal chelate (Ori-TAG) which, in the presence of tripropylamine (TPA), generates electrochemiluminescence upon voltage application. Paramagnetic beads, microns in diameter, act as the solid phase and facilitate rapid assay kinetics. The bead/complex is channeled through a flow cell and captured at an electrode by magnetic application. Voltage is applied and resulting electrochemiluminescence is measured.
# (§7) ECL assays were performed as follows. Three-fold serial dilutions of anti-human IL-17A mAbs in 50 μl of the assay buffer were made in a 96-well microtiter plate to give 1-3 μg/ml final concentration in the first well. […] Finally 50 μl of Origen Streptavidin-Dynabeads at 0.1 mg/ml was added to each well. […] GraphPad Prism software (GraphPad Software, San Diego, Calif., USA) was used to plot the data and calculate area under the curve, which is a rough measure of binding.
# FLAG-huIL-17A [17] = molecular target: T5, FLAG-huIL-17A; test: ECL (Origen), antibody titrated against biotinylated antigen; area under the curve
# From the text: as §6, §7
Binder,"IC50, synoviocyte IL-6 production, rhIL-17A (30 ng/ml) (rhIL-17A [1]) [µg/mL]","IC50, synoviocyte IL-8 production, rhIL-17A (30 ng/ml) (rhIL-17A [2]) [µg/mL]",Kd (rhIL-17A [3]) [nM],EC50 (rhIL-17A [5]) [nM],other results
B1,0.08,0.042,0.0088,0.066,EC50 (rhIL-17A [4]): 0.212 nM; EC50 (R&D Systems human IL-17A): 0.13 nM
B2,,,0.0161,,
B3,0.07,0.038,0.0039,0.092,"IC50, synoviocyte IL-6 production, Native huIL-17A (10 ng/ml) (native human IL-17A [6]): 0.025 µg/mL; IC50, synoviocyte IL-6 production, NHP IL-17A (30 ng/ml) (cynomolgus monkey IL-17A [7]): 0.07 µg/mL; IC50, synoviocyte IL-8 production, Native huIL-17A (10 ng/ml) (native human IL-17A [8]): 0.05 µg/mL; IC50, synoviocyte IL-8 production, NHP IL-17A (30 ng/ml) (cynomolgus monkey IL-17A [9]): 0.038 µg/mL; IC50, Ba/F3 hIL-17Rc-mGCSFR proliferation assay, IL-17A at 100 pM (rhIL-17A [10]): 15 pM and 13 pM and 27 pM; IC50, Ba/F3 hIL-17Rc-mGCSFR proliferation assay, IL-17A at 276 pM (rhIL-17A [10]): 149 pM; IC50, Ba/F3 hIL-17Rc-mGCSFR proliferation assay, IL-17A at 100 pM (cynomolgus monkey IL-17A [11]): 17 pM; Kd (cynomolgus monkey IL-17A [12]): 0.0163 nM; EC50 (R&D Systems human IL-17A): 0.136 nM"
B4,,,,0.125,
B5,0.07,0.05,,0.049,
B6,0.06,0.025,0.007,0.065,
B7,0.06,0.025,0.0108,0.075,
B8,,,,0.063,
B9,0.07,0.04,0.01,0.08,"IC50, Ba/F3 hIL-17Rc-mGCSFR proliferation assay, IL-17A at 100 pM (rhIL-17A [10]): 11 pM; EC50 (R&D Systems human IL-17A): 0.118 nM"
B10,,,,0.053,
B11,,,,0.074,
B12,0.06,0.025,,0.068,
B13,,,,0.066,
B14,0.06,0.025,0.0099,0.06,
B15,,,,,"IC50, inhibition of IL-6 production in NHDF cells, rhIL-17A (rhIL-17A [13]): > 70 nM; IC50, inhibition of IL-6 production in NHDF cells, cyno IL-17A (cynomolgus monkey IL-17A [14]): > 70 nM"
B16,,,,,"IC50, inhibition of IL-6 production in NHDF cells, rhIL-17A (rhIL-17A [13]): 0.5 nM; IC50, inhibition of IL-6 production in NHDF cells, cyno IL-17A (cynomolgus monkey IL-17A [14]): 0.2 nM; Kd (FLAG-huIL-17A [15]): 0.011 nM; Kd (cynomolgus monkey IL-17A [12]): 0.0326 nM; Area Under Peak (cynomolgus monkey IL-17A [16]): 124000; Area Under Peak (FLAG-huIL-17A [17]): 312000"
B17,,,,,"IC50, inhibition of IL-6 production in NHDF cells, rhIL-17A (rhIL-17A [13]): 0.5 nM; IC50, inhibition of IL-6 production in NHDF cells, cyno IL-17A (cynomolgus monkey IL-17A [14]): 0.2 nM"
B18,,,,,"IC50, Ba/F3 hIL-17Rc-mGCSFR proliferation assay, IL-17A at 100 pM (rhIL-17A [10]): 29 pM; EC50 (rhIL-17A [4]): 0.157 nM; Area Under Peak (FLAG-huIL-17A [17]): 346000"
